For eight sequences, protein production results are on record in a protein production outcome set (Wang et al. 2014).

The series can be described thus: label from the status in PepcDB records.

In the case of “MALLLFFLFIALLGFGILKINNRSILGGITLASGTLLSLVTLLFIGLDKIYLHFKNGDLITLAIAYLLIPAVFIGICLYFIFNSRTMQTKEGKSVTAKLSAGLGLNLLIALPAFLYLLSVGTAQIPYVLFLFLLFLLLMDLLLTFLFAAYVLYSWMYQMIPLKKAVDYIIVLGSGIRSEEVPPLLKSRLDKGIEYYEKNPTAKFVVSGGQGPDEPVAEAFAMKKYLLSQNIPAEAILMEDQSTTTYENMLFSKAIIQADWQKMPSDSKQPSVIFSTNNYHVLRGAMYAHRVGLKAEGVGAPTALYFLPTALIREYIALLVHDKRIVLFVFLLVTLLLGISILPI”, the protein production result is recorded as “failed”. On to “MALMTNKTRALLIGGHGKVALLATPMLIDASVQVTSMYRNPDHRSEIEALGATTLERDVTTLSVEDWADLLKDFDVVVWSAGNGGKNGADATYAIDRDAAIASIDGAASLGEKAPRYIMVSYIGSSTHTIDPSASFYPYAESKKAADEHLSSTNLDYLILAPAALTLDEVNGVEVIADTNEAAAGRTTSRVLVAEVITEFVVRDFPQTRVLPFVDGESPVSSIS”, for which the protein production entry was “failed”. Consider “MALMTNKTRALLIGGHGKVALLATPMLIDASVQVTSMYRNPDHRSEIEALGATTLERDVTTLSVEDWADLLKDFDVVVWSAGNGGKNGADATYAIDRDAAIASIDGAASLGEKAPRYIMVSYIGSSTHTIDPSASFYPYAESKKAADEHLSSTNLDYLILAPAALTLDEVNGVEVIADTNEAAAGRTTSRVLVAEVITEFVVRDFPQTRVLPFVDGLEHHHHHH”, for which the protein production entry was “failed”.

Take “MALQTEQFNANILRNGEWVESRTGERISISAPASGVALGSIPALSQEEVNDAIQGAKDAQKIWKIRPIHERVDLLYAWADLLEERKEIIGELIMHEVAKPKKSAIGEVSRTADIIRHTADEALRLNGETLKGDQFKGGSSKKIALVEREPLGVVLAISPFNYPVNLAAAKIAPALVTGNTVVFKPATQGSLSGIKMVEALADAGAPEGIIQVVTGRGSVIGDHLVEHPGIDMITFTGGTTTGERISEKAKMIPVVLELGGKDPAIVLDDADLKLTASQIVSGAFSYSGQRCTAIKRVFVQDSVADQLVANIKELVEQLTVGSPEDDADITPVIDEKSAAFIQGLIDDALENGATLLSGNKRQGNLLSPTLLDDVTPAMRVAWEEPFGPVLPIIRVKDANEAISLSNQSDYGLQASIFTKDTDRAINIGKHLEVGTVHINAKTERGPDHFPFLGVKKSGLGVQGIKPSLLSMTRERVTVLNL”: the protein production entry was “not failed”. As to “MALSDTKLRKIKAPYNGEAELADRDGLSVRVSPKALITFNYRFRWEGKQQRIKLGRYPGLKLIDARKKVNEYRHNLDEGLDPRVVQNESRSHNLFGDMCEAFMTKYVMTELRPKTQTLYKSTFNKYVTPYKNIDIERYKYTDWIAYFDWVKKESSSANAGSVLKRFKAVANWAKARGQIKHSHLIDIPIKAIGSHQQKRERCLEWDEVIGLWRQIESSKSTPQCKTCIQLLLLTGARNAEIREARRDEFDLDKNIWLLPPERSKTKKQVRRPLSTGVIELINKLDLIYGQDREYLIAGDIKGKPLTTHAVNRFVQRMNNHLKYPHFVPHDFRRTIVTRLSEHKVELHVTEKMLGHELGGILTRYNKHDWIDEQREAYELYWQKVTLLLKN”, the protein production result is “failed”. Consider “MALTATVDVELKIRHSVPQRREPTKWRRIMYAITGITGKVGGAMARALLAAGQPVRAIVRDATKGRQWAALGCDVAIATMEDAEALTQAFKGATAVFILPPPVFDPEPFYPEAQAVIDSVATALRAAKPARVVCLSTVGADAVQDNLLSQHTKMETALSALPLALTLLRPAWFLDNVAWDVSSARGAGLIHSFLAPTGRALPMVAAEDVGRVAATLIQQDWSGTRIVELEGPERVSPDDLAAAFTTVLGKPVRAVPVPRETWEALFRSQGMRNPQPRMRMLDGFNEGWIAFADEARTIKGTISATTVVQALVAGEGA”, for which the protein production entry was “failed”. “MALVYLVQSDTTIGLLSKDSEKLNALKGRPKNQSVLIESADFSTLKSLVRAPNAFKNLIRRSAKTTFIYPNSKAVRVIRGRHGDFLNRFKTLYSTSANLTQCAYDKEIASNLADVIVSDERGLFESSSSKIFRLYKDKKVRIR”: the protein production result is reported as “failed”. Turning to “MALWMDAGATPTTEKEKADLEAISALKESTAIEFKEEGNECVRKGKKHYSEAIDCYTKAISQGVLSDSETSILFSNRSHVNLLLGNYRRALTDAEESMRLSPHNVKAVYRAAKASMSLDLLNEAKSYCEKGIENDPSNEDMKKLLKLVNSKKQEKEQHEAQASQAVVEAKACLSAIENRGVKIGKAMYRELTGLKKPMLDKNNILHWPVLLLYAEAMTSDFVEDFCETDMFATHLDMMFSEDSPPLPWDKNNEYSRDVIELYYEASSGTPLPRSRVLQYLLEGTKGSQAETTGEEDTSATKTPSYLKGSSGMVKVNERRTLHDVLKEPKFVIPEIPVFYIVSKRSKFYKDFTAGKWTPPN”, the protein production entry is given as “failed”.
